Common to all, as to details: both partners purified
In one experiment the target is T1, 14-3-3β (full length) (human, UniProt P31946 1-246).
T1 construct: 14-3-3 protein beta/alpha, human, full length; Expressed from a pPRoeX-Htb vector; also called 14-3-3 isoform β; source: E. coli NiCo21(DE3), purified (nickel column, TEV cleavage, second nickel column, SEC)
T1 sequence (looked up): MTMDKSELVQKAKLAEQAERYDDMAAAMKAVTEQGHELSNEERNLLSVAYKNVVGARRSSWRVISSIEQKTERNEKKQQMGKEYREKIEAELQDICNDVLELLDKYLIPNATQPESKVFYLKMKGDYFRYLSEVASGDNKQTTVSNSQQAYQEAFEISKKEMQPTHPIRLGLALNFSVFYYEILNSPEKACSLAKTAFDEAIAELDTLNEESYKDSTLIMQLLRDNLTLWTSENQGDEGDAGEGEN
Description: fluorescence polarisation; 14-3-3 isoforms (full length) serially diluted twofold in the presence of 10 nM FITC-labelled peptide; 50 mM Tris pH 7.5, 150 mM NaCl, 5 mM MgCl2, 0.05% Tween-20 (no reducing agent listed); one-site specific binding model.

The target in the next experiment is T2, 14-3-3ɛ (full length) (human, UniProt P62258 1-255).
T2 construct: 14-3-3 protein epsilon, human, full length; Expressed from a pPRoeX-Htb vector; also called 14-3-3 isoform ɛ; source: E. coli NiCo21(DE3), purified (nickel column, TEV cleavage, second nickel column, SEC)
T2 sequence (looked up): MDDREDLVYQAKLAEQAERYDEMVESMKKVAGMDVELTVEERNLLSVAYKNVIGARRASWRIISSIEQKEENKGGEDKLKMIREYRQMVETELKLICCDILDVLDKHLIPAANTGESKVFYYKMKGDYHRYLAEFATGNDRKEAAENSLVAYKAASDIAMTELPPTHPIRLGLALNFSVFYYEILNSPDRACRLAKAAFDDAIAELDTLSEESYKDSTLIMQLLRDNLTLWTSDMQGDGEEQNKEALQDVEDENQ
The experiment is described as above.

In a further experiment the target is T3, 14-3-3τ (full length) (human, UniProt P27348 1-245).
T3 construct: 14-3-3 protein theta (tau), human, full length; Expressed from a pPRoeX-Htb vector; also called 14-3-3 isoform τ; source: E. coli NiCo21(DE3), purified (nickel column, TEV cleavage, second nickel column, SEC)
T3 sequence (looked up): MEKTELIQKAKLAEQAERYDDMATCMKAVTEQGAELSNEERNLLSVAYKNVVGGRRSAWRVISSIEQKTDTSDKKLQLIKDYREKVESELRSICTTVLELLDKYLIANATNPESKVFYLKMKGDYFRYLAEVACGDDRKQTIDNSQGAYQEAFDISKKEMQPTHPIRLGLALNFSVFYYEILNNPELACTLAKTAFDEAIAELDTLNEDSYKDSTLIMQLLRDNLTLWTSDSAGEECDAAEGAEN
The description is as above.

A further experiment addresses T4, 14-3-3σ (full length) (human, UniProt P31947 1-248).
T4 construct: 14-3-3 protein sigma, human, full length; Expressed from a pPRoeX-Htb vector; also called 14-3-3 isoform σ; the σ isoform; source: E. coli NiCo21(DE3), purified (nickel column, TEV cleavage, second nickel column, SEC)
T4 sequence (looked up): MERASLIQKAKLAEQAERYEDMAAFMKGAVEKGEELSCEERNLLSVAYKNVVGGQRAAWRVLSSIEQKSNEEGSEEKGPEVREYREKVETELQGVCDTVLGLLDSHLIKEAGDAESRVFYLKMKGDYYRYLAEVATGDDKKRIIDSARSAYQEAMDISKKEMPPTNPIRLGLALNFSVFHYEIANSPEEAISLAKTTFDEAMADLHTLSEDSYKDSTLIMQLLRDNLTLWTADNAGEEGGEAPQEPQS
Description: ITC; peptide titrated into the cell containing the 14-3-3 protein, 18 injections of 2 µl, 25°C; 50 mM Tris pH 7.5, 150 mM NaCl, 5 mM MgCl2, 2 mM 2-mercaptoethanol, 0.05% Tween-20 (reducing conditions).

Non-standard residues stand in square brackets, D forms with d. No end group written: not given here. *: point of attachment. FITC = O=C1OC2(c3ccc(O)cc3Oc3cc(O)ccc32)c2ccc(NC(=S)*)cc21; pS = N[C@@H](COP(=O)(O)O)C(=O)O; Ahx = NCCCCCC(=O)O

A word on the Kd: it is the constant that tells how readily two partners part at equilibrium. Low readings indicate a tighter complex, high ones a looser complex.

B1: SHN3pS542 peptide, N-terminally FITC-Ahx-labelled (peptide)
peptide: {FITC-Ahx}-LLRSH[pS]MPSAAC
modifications: also: phosphoserine at 542, position not mapped
notes: Schnurri-3 (SHN3, transcription factor HIVEP3), human, 12-mer around phosphorylated Ser542; also called SHN3pS542-FITC; the FITC-labelled form; source: synthetic peptide, bought: GenScript (purity >95%)
On to B1, for which the binding result with 14-3-3β (full length), with 14-3-3ɛ (full length) and with 14-3-3τ (full length) was “binds” each time. In addition, the Kd in the experiment with 14-3-3σ (full length) came to 4.8 ± 0.8 µM.

The values above are taken from article PMC8329713, “The identification and structural analysis of potential 14-3-3 interaction sites on the bone regulator protein Schnurri-3” (Acta Crystallographica. Section F, Structural Biology …, 2021).
